Data: article PMC4258549
pIC50, pKd: −log10 of the molar value. Like-named read-outs stand apart in the source and are kept apart here.

Columns and labels:
Experiment in all cases: AlphaScreen or HTRF
biotinylated C4b (human) [1] = molecular target: biotinylated C4b (human)
biotinylated C4b (human) [2] = molecular target: biotinylated C4b (human); remark: listed apart in the source
[3] = molecular target: myc-tagged Eap (Staphylococcus aureus) (UniProt Q99QS1)
myc-tagged Eap (Staphylococcus aureus), sequence (Q99QS1 31-476): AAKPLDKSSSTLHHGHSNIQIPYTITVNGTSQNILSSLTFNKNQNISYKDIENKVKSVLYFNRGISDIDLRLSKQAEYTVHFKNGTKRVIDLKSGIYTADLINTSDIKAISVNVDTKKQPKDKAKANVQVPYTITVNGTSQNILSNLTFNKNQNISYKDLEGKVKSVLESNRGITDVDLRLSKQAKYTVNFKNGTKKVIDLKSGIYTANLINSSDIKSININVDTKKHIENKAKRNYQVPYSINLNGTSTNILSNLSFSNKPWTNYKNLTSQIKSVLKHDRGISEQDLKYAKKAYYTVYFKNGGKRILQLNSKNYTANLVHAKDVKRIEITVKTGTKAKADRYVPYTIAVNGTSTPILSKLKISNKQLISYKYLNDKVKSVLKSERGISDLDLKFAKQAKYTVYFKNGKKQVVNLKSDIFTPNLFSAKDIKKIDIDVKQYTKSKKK

C4b-binding protein, sequence (P04003 49-597): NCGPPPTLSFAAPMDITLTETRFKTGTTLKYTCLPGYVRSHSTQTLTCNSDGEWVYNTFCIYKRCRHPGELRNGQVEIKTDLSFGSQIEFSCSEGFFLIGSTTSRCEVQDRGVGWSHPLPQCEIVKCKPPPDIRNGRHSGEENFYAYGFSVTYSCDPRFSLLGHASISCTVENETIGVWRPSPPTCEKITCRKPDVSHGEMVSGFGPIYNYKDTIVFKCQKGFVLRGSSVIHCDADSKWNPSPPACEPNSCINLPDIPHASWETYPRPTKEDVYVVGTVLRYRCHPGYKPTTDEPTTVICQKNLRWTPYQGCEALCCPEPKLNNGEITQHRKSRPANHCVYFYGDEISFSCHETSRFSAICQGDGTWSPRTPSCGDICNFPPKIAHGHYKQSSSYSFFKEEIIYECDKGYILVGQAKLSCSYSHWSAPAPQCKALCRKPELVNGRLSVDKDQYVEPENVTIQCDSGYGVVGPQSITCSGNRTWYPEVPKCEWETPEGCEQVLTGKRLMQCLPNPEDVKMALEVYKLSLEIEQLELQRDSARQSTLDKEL
C4b-binding protein, sequence (P20851 18-252): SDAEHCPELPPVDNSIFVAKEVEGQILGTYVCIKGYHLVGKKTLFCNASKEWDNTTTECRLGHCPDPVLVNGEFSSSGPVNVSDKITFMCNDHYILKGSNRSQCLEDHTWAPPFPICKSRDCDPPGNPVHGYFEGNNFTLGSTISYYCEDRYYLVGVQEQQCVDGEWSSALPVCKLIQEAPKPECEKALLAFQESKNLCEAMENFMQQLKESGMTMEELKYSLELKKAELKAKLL

“C4b-binding protein (from UniProt P04003 49-597; P20851 18-252) (complex)” gave a pIC50 (biotinylated C4b (human) [1]) of 7.68 and a pIC50 (biotinylated C4b (human) [2]) of 7.89.

“native complement component C4 (complex)” was tested, and the pKd [3] was 7.35.

In the case of “C2b fragment of complement component C2, recombinant (domain or fragment)”, the pIC50 (biotinylated C4b (human) [1]) was 5.46.

Work on C4c (complex) yielded a pKd [3] of 6.86.
